{
  "source": "patent US12241094B2",
  "about": "“Phenazine degrading agents and related compositions, methods and systems for interfering with viability of bacteria” (priority 2016, dated 2025)",
  "key": {"[1]": {"experiment": "Storage stability of purified PodA30-162", "format": "physicochemical", "conditions": "20 mM Tris, pH7.6, 4° C.; as long as tested", "method": "Protein extraction and purification. Frozen cell pellets were thawed at room temperature and suspended in 25 mL wash buffer (200 mM KCl, 20 mM imidazole, Tris, pH 7.6). Cell suspensions were homogenized in an Emulsiflex device (Avestin). Cell debris was removed by centrifugation (Avanti J-25 centrifuge, J-series JA-25.50 rotor, Beckman-Coulter) at 50,000×g and supernatant was applied to a nickel GE Healthcare HisTrap HP 5 mL nickel column on a GE Healthcare ÄKTAxpress FPLC. All protein purification steps were carried out at room temperature. The column with bound protein was washed with wash buffer until the UV (280 nm) trace stabilized below 20 mAU. Proteins were eluted across a gradient of 20-500 mM imidazole applied over 10 column volumes. PYO demethylase activity generally eluted around 300 mM imidazole. Eluted protein was concentrated to ˜3 mL (Amicon Ultra-15 centrifugal filters, Ultracel 3K MWCO) and treated overnight with 1% wt/wt TEV protease (35) while dialyzing (Spectra/Por Biotech Dialysis membrane, MWCO: 3.5-5 kD) into buffer containing 200 mM KCl and 20 mM Tris, pH7.6 at 4 C. […] Protein quantification was carried out by Bradford assay (36) (Quick Start 1× Bradford Dye Reagent, Bio-Rad) using pre-diluted Bovine Serum Albumin standards (Thermo Scientific) to establish a standard curve. […]"}, "[2]": {"test_system": "P. aeruginosa planktonic culture", "experiment": "Phenazines in planktonic P. aeruginosa cultures (HPLC)", "format": "cell-based", "from_the_text": "Product was cut with DpnI to remove WT vector, phosphorylated with T4 polynucleotide kinase, and ligated to generate a circular mutant protein expression construct. For D72N and Y156F mutants, DNA fragments encoding the mutation were synthesized (Integrated DNA Technologies) and cloned into pET-20b(+) as for the wild type sequence. Enzymes for cloning were purchased from New England Biolabs. Constructs were transferred to E. coli BL21(DE3) for expression. All mutations were confirmed by Sanger sequencing (Laragen and Retrogen). When necessary, 100 μg mL^−1 carbenicillin was included in all growth media to maintain selection for the plasmid. To measure the effect of PodA30-162 on phenazine production in planktonically grown P. aeruginosa, cultures were grown overnight in 5 mL volumes of tryptic soy broth (TSB) or succinate minimal medium (arginine medium recipe from Glasser et al., 2014 with 40 mM sodium succinate in place of arginine) (3) in the presence 1 μg mL^−1 PodA30-162. Cells were removed by centrifugation and supernatants were analyzed by HPLC as previously described (9). See below for a description of biofilm growth of P. aeruginosa PA14. To induce protein expression, an overnight culture was inoculated 1/1000 in Terrific Broth (BD Difco). Cultures were grown in baffled Erlenmeyer flasks (1 L culture per 3 L flask) at 37° C. with 150 rpm agitation in a shaking incubator (Innova 44 shaking incubator, New Brunswick). After 3-4 hours, the temperature was changed to 16° C. and cultures were induced with 50 μM (final concentration) IPTG and left to incubate overnight. Cells were then pelleted by centrifugation, flash frozen in liquid N2, and stored at −80° C. for up to 1 month before protein purification."}, "[3]": {"test_system": "Pa PA14 biofilm transcriptome", "experiment": "RNASeq transcriptome of biofilm cultures", "format": "cell-based, P. aeruginosa", "conditions": "5 h", "method": "Because 1-OH-PHZ induces iron starvation in A. fumigatus (Briard et al. (2015) Scientific Reports. 2015; 5), it was speculated that the abrogation of biofilm development in P. aeruginosa grown in the presence of either PodA or 1-OH-PHZox may be mediated by a response to Fe-limitation. To test this idea, changes to the transcriptome of Pa PA14 by RNASeq were assessed. After 5 h of incubation in the presence of PodA (1 μM), 1-OH-PHZ (200 μM) or PYO (200 μM), RNA was prepared from 1 ml of biofilm cultures (250 μl pooled from 4 static biofilm chambers) for analysis on an Illumina HiSeq 2500 sequencer at the Millard and Muriel Jacobs Genetics and Genomics Laboratory, as previously described (Babin et al. (2016) Proc Natl Acad Sci USA. 113(5):E597-E605; Kreamer et al. (2015) M Bio. 2015; 6(2):e02549. Epub 2015/02/26). This experiment was designed to identify genes that were likely to be specifically affected by PodA's transformation of PYO to 1-OH-PHZ under a condition that inhibited biofilm formation (FIG. 20A). As a reference for genes responsive to iron availability, these transcriptomes were compared to those previously found to respond to Fe(II) shock (Kreamer et al. (2015) M Bio. 2015; 6(2):e02549. Epub 2015/02/26)."}, "P. aeruginosa biofilm": {"test_system": "P. aeruginosa biofilm", "experiment": "Microcolony number and size in 5 hour biofilms on succinate minimal medium", "format": "cell-based", "conditions": "100 μM 1-OHPHZ or 0.5 μg mL-1 PodA", "from_the_text": "FIGS. 24A-C show charts and images illustrating results of exemplary experiments showing that PodA and 1-OH-PHZ inhibit the early stages of P. aeruginosa biofilm formation on succinate minimal medium. […] Numbers are averages and SD from 8 biological replicates."}},
  "data": [
    {"molecule": "PodA30-162: truncated pyocyanin demethylase encoded by MFORT_14352 of Mycobacterium fortuitum lacking N-terminal helix, SEQ ID NO: 2 (protein, listed as Mycobacterium fortuitum) MDGRGGRSTTEPVTMTLDVKNDQVAKHDFGKPGMDVGDMDIFSDILSVDGKQVGYDGGACFFTNVTPDNPMTYCELTIHLDAGEIFARSLTPHTLAPFTMAITGGTGEYANSKGELTVSGVATPDEKYELKLTKAENLYFQ", "values": [
      {"measurement": "time stable with no apparent loss of activity", "setting": "[1]", "result": "≥ 4", "unit": "months"},
      {"measurement": "total phenazine concentrations", "setting": "[2]; TSB", "result": "remain constant"},
      {"measurement": "enzyme stability in P. aeruginosa overnight culture", "setting": "[2]; TSB, enzyme added at start of culture", "result": "remained stable throughout the incubation period"},
      {"measurement": "effect on PYO in planktonic culture", "setting": "[2]; rich and minimal medium, 1 μg mL^−1 PodA30-162", "result": "conversion of PYO to 1-OH-PHZ"},
      {"measurement": "phenazine production", "setting": "[2]; tryptic soy broth, 24 hours", "result": "changes to the concentrations of all four phenazines"},
      {"measurement": "expression of small gene cluster incl. QapR regulon", "setting": "[3]", "result": "upregulated modestly"},
      {"measurement": "log(2) changes relative to untreated control, metal scavenging and starvation response genes (FIG. 21A)", "setting": "[3]; PodA 1 μM, 1-OH-PHZ 200 μM, PYO 200 μM", "result": "~0 log(2)"},
      {"measurement": "microcolony diameter", "setting": "P. aeruginosa biofilm", "result": "decreases"},
      {"measurement": "number of microcolonies formed", "setting": "P. aeruginosa biofilm; vs inactive E154A", "result": "decreases"}
    ]}
  ]
}
